± gives the uncertainty stated by the source.
B1: RUN and FYVE domain-containing protein 1, residues 639 to 698; numbered along this chain, Q96T51 (parent)
chain: WLKDDEATHCRQCEKEFSISRRKHHCRNCGHIFCNTCSSNELALPSYPKPVRVCDSCHTL

Variants of: B1
Experiment: abundance fitness (aPCA) (normalised: wild type 0, dead -1); higher = more abundant; growth selection in yeast, the domain comes from the species named
Conditions: Homo sapiens

Row | Variant | abundance fitness
1 | WLKDDEATHCRQCEKEFSISRRKHHCRNYGHIFCNTCSSNELALPSYPKPVRVCDSCHTL [C29Y] | -0.852 ± 0.097
2 | WLKDDEATHCRQCEKEFSISRRKHHCRNQGHIFCNTCSSNELALPSYPKPVRVCDSCHTL [C29Q] | -1.23 ± 0.18
3 | WLKDDEATHCRQCEKEFSISRRKHHCRNLGHIFCNTCSSNELALPSYPKPVRVCDSCHTL [C29L] | -0.875 ± 0.08
4 | WLKDDEATHCRQCEKEFSISRRKHHCRNIGHIFCNTCSSNELALPSYPKPVRVCDSCHTL [C29I] | -1.11 ± 0.11
5 | WLKDDEATHCRQCEKEFSISRRKHHCRNMGHIFCNTCSSNELALPSYPKPVRVCDSCHTL [C29M] | -0.906 ± 0.094
6 | WLKDDEATHCRQCEKEFSISRRKHHCRNDGHIFCNTCSSNELALPSYPKPVRVCDSCHTL [C29D] | -0.709 ± 0.11
7 | WLKDDEATHCRQCEKEFSISRRKHHCRNFGHIFCNTCSSNELALPSYPKPVRVCDSCHTL [C29F] | -0.871 ± 0.098
8 | WLKDDEATHCRQCEKEFSISRRKHHCRNPGHIFCNTCSSNELALPSYPKPVRVCDSCHTL [C29P] | -0.835 ± 0.081
9 | WLKDDEATHCRQCEKEFSISRRKHHCRNWGHIFCNTCSSNELALPSYPKPVRVCDSCHTL [C29W] | -1.03 ± 0.097
10 | WLKDDEATHCRQCEKEFSISRRKHHCRNGGHIFCNTCSSNELALPSYPKPVRVCDSCHTL [C29G] | -1 ± 0.075
11 | WLKDDEATHCRQCEKEFSISRRKHHCQNCGHIFCNTCSSNELALPSYPKPVRVCDSCHTL [R27Q] | 0.112 ± 0.054
12 | WLKDDEATHCRQCEKEFSISRRKHHCENCGHIFCNTCSSNELALPSYPKPVRVCDSCHTL [R27E] | 0.085 ± 0.058
13 | WLKDDEATHCRQCEKEFSISRRKHHCANCGHIFCNTCSSNELALPSYPKPVRVCDSCHTL [R27A] | 0.189 ± 0.048
14 | WLKDDEATHCRQCEKEFSISRRKHHCFNCGHIFCNTCSSNELALPSYPKPVRVCDSCHTL [R27F] | 0.176 ± 0.061
15 | WLKDDEATHCRQCEKEFSISRRKHHCINCGHIFCNTCSSNELALPSYPKPVRVCDSCHTL [R27I] | -0.077 ± 0.052
16 | WLKDDEATHCRQCEKEFSISRRKHHCKNCGHIFCNTCSSNELALPSYPKPVRVCDSCHTL [R27K] | 0.04 ± 0.082
17 | WLKDDEATHCRQCEKEFSISRRKHHCWNCGHIFCNTCSSNELALPSYPKPVRVCDSCHTL [R27W] | -0.144 ± 0.046
18 | WLKDDEATHCRQCEKEFSISRRKHHCPNCGHIFCNTCSSNELALPSYPKPVRVCDSCHTL [R27P] | 0.219 ± 0.053
19 | WLKDDEATHCRQCEKEFSISRRKHHCVNCGHIFCNTCSSNELALPSYPKPVRVCDSCHTL [R27V] | -0.262 ± 0.038
20 | WLKDDEATHCRQCEKEFSISRRKHHCCNCGHIFCNTCSSNELALPSYPKPVRVCDSCHTL [R27C] | -0.067 ± 0.053
21 | WLKDDEATHCRQCEKEFSISRRKHHCGNCGHIFCNTCSSNELALPSYPKPVRVCDSCHTL [R27G] | 0.153 ± 0.041
22 | WLKDDEATHCRQCEKEFSISRRKHHCNNCGHIFCNTCSSNELALPSYPKPVRVCDSCHTL [R27N] | 0 ± 0.088
23 | WLKDDEATHCRQCEKEFSISRRKHHCMNCGHIFCNTCSSNELALPSYPKPVRVCDSCHTL [R27M] | 0.019 ± 0.051

Row | Variant | abundance fitness
24 | WLKDDEATHCRQCEKEFSISRRKHHCLNCGHIFCNTCSSNELALPSYPKPVRVCDSCHTL [R27L] | 0.069 ± 0.034
25 | WLKDDEATHCRQCEKEFSISRRKHHCHNCGHIFCNTCSSNELALPSYPKPVRVCDSCHTL [R27H] | 0.316 ± 0.053
26 | WLKDDEATHCRQCEKEFSISRRKHHCSNCGHIFCNTCSSNELALPSYPKPVRVCDSCHTL [R27S] | -0.003 ± 0.039
27 | WLKDDEATHCRQCEKEFSISRRKHHCTNCGHIFCNTCSSNELALPSYPKPVRVCDSCHTL [R27T] | 0.095 ± 0.037
28 | WLKDDEATHCRQCEKEFSISRRKHHCDNCGHIFCNTCSSNELALPSYPKPVRVCDSCHTL [R27D] | 0.072 ± 0.082
29 | WLKDDEATHCRQCEKEFSISRRKHHRRNCGHIFCNTCSSNELALPSYPKPVRVCDSCHTL [C26R] | -0.804 ± 0.076
30 | WLKDDEATHCRQCEKEFSISRRKHHGRNCGHIFCNTCSSNELALPSYPKPVRVCDSCHTL [C26G] | -0.709 ± 0.072
31 | WLKDDEATHCRQCEKEFSISRRKHHKRNCGHIFCNTCSSNELALPSYPKPVRVCDSCHTL [C26K] | -0.677 ± 0.12
32 | WLKDDEATHCRQCEKEFSISRRKHHVRNCGHIFCNTCSSNELALPSYPKPVRVCDSCHTL [C26V] | -0.913 ± 0.082
33 | WLKDDEATHCRQCEKEFSISRRKHHMRNCGHIFCNTCSSNELALPSYPKPVRVCDSCHTL [C26M] | -0.76 ± 0.094
34 | WLKDDEATHCRQCEKEFSISRRKHHTRNCGHIFCNTCSSNELALPSYPKPVRVCDSCHTL [C26T] | -0.832 ± 0.09
35 | WLKDDEATHCRQCEKEFSISRRKHHYRNCGHIFCNTCSSNELALPSYPKPVRVCDSCHTL [C26Y] | -0.77 ± 0.13
36 | WLKDDEATHCRQCEKEFSISRRKHHNRNCGHIFCNTCSSNELALPSYPKPVRVCDSCHTL [C26N] | -0.418 ± 0.12
37 | WLKDDEATHCRQCEKEFSISRRKHHFRNCGHIFCNTCSSNELALPSYPKPVRVCDSCHTL [C26F] | -0.89 ± 0.14
38 | WLKDDEATHCRQCEKEFSISRRKHHSRNCGHIFCNTCSSNELALPSYPKPVRVCDSCHTL [C26S] | -0.636 ± 0.065
39 | WLKDDEATHCRQCEKEFSISRRKHHPRNCGHIFCNTCSSNELALPSYPKPVRVCDSCHTL [C26P] | -0.508 ± 0.071
40 | WLKDDEATHCRQCEKEFSISRRKHHIRNCGHIFCNTCSSNELALPSYPKPVRVCDSCHTL [C26I] | -0.866 ± 0.13
41 | WLKDDEATHCRQCEKEFSISRRKHHERNCGHIFCNTCSSNELALPSYPKPVRVCDSCHTL [C26E] | -0.655 ± 0.11
42 | WLKDDEATHCRQCEKEFSISRRKHHLRNCGHIFCNTCSSNELALPSYPKPVRVCDSCHTL [C26L] | -0.763 ± 0.055
43 | WLKDDEATHCRQCEKEFSISRRKHHHRNCGHIFCNTCSSNELALPSYPKPVRVCDSCHTL [C26H] | -0.628 ± 0.11
44 | WLKDDEATHCRQCEKEFSISRRKHHWRNCGHIFCNTCSSNELALPSYPKPVRVCDSCHTL [C26W] | -0.748 ± 0.11
45 | WLKDDEATHCRQCEKEFSISRRKHHQRNCGHIFCNTCSSNELALPSYPKPVRVCDSCHTL [C26Q] | -0.855 ± 0.087

Reference: the Human Domainome abundance scans (Beltran et al. 2025)
